The supplement of paper PMC10567573

B1: CAMK2D (parent)
chain: LLKHPNIVRLHDSISEEGFHYLVF
B2: MLH1 (parent)
chain: YAHQMVRTDSREQKLDAFLQPLSK

Variants of: B1
Experiment: protein stability index of a GFP-peptide fusion (GPS, HEK-293T) (PSI 1-6); higher = more stable
Settings: c terminus: a fixed tail appended
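Further: lentivirally expressed fusions sorted by FACS into six bins by GFP to DsRed ratio, PSI derived from sequencing read proportions per bin multiplied by bin number.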

Variant	protein stability index
LLKHPNIDRLHDSISEEGFHYLVF	2.41
LLKHPNIKRLHDSISEEGFHYLVF	2.05
LLKHPNIQRLHDSISEEGFHYLVF	1.94
LLKHPNIIRLHDSISEEGFHYLVF	1.87
LLKHPNILRLHDSISEEGFHYLVF	2.21
LLKHPNIHRLHDSISEEGFHYLVF	1.8
LLKHPNIARLHDSISEEGFHYLVF	2.64
LLKHPNIPRLHDSISEEGFHYLVF	2.01
LLKHPNIFRLHDSISEEGFHYLVF	1.47
LLKHPNIERLHDSISEEGFHYLVF	2.17
LLKHPNIRRLHDSISEEGFHYLVF	1.81
LLKHPNIWRLHDSISEEGFHYLVF	3.27
LLKHPNIGRLHDSISEEGFHYLVF	2.79
LLKHPNIMRLHDSISEEGFHYLVF	2.59
LLKHPNIYRLHDSISEEGFHYLVF	2.91
LLKHPNIVRLDDSISEEGFHYLVF	2.39
LLKHPNIVRLRDSISEEGFHYLVF	2.79
LLKHPNIVRLCDSISEEGFHYLVF	2.84
LLKHPNIVRLLDSISEEGFHYLVF	1.48
LLKHPNIVRLPDSISEEGFHYLVF	2.42
LLKHPNIVRLWDSISEEGFHYLVF	2.62
LLKHPNIVRLNDSISEEGFHYLVF	2.29
LLKHPNIVRLADSISEEGFHYLVF	2.57
LLKHPNIVRLSDSISEEGFHYLVF	1.8

Variant	protein stability index
LLKHPNIVRLVDSISEEGFHYLVF	1.9
LLKHPNIVRLQDSISEEGFHYLVF	2.07
LLKHPNIVRLEDSISEEGFHYLVF	2.68
LLKHPNIVRLFDSISEEGFHYLVF	1.96
LLKHPNIVRLIDSISEEGFHYLVF	2.7
LLKHPNIVRLTDSISEEGFHYLVF	2.52
LLKHPNIVRLKDSISEEGFHYLVF	3.01
LLKHPNIVRAHDSISEEGFHYLVF	2.84
LLKHPNIVRQHDSISEEGFHYLVF	1.7
LLKHPNIVRCHDSISEEGFHYLVF	2.11
LLKHPNIVRPHDSISEEGFHYLVF	2.49
LLKHPNIVREHDSISEEGFHYLVF	2.5
LLKHPNIVRNHDSISEEGFHYLVF	2.25
LLKHPNIVRYHDSISEEGFHYLVF	2.95
LLKHPNIVRTHDSISEEGFHYLVF	1.43
LLKHPNIVRGHDSISEEGFHYLVF	1.36
LLKHPNIVRHHDSISEEGFHYLVF	2.14
LLKHPNIVRVHDSISEEGFHYLVF	1.75
LLKHPNIVRIHDSISEEGFHYLVF	2.53
LLKHPNIVRDHDSISEEGFHYLVF	1.74
LLKHPNIVRRHDSISEEGFHYLVF	1.17
LLKHPNIVRSHDSISEEGFHYLVF	1.86
LLKHPNIVRFHDSISEEGFHYLVF	3.99
LLKHPNIVRWHDSISEEGFHYLVF	3.54

Variant	protein stability index
LLKHPNIVRKHDSISEEGFHYLVF	2.02
LLKHPNIVRMHDSISEEGFHYLVF	3.69
LAKHPNIVRLHDSISEEGFHYLVF	2.92
LEKHPNIVRLHDSISEEGFHYLVF	2.04
LMKHPNIVRLHDSISEEGFHYLVF	1.77
LTKHPNIVRLHDSISEEGFHYLVF	1.94
LCKHPNIVRLHDSISEEGFHYLVF	2.36
LKKHPNIVRLHDSISEEGFHYLVF	3.35
LHKHPNIVRLHDSISEEGFHYLVF	1.44
LYKHPNIVRLHDSISEEGFHYLVF	1.83
LDKHPNIVRLHDSISEEGFHYLVF	2.09
LGKHPNIVRLHDSISEEGFHYLVF	2.37
LPKHPNIVRLHDSISEEGFHYLVF	1.56
LNKHPNIVRLHDSISEEGFHYLVF	3.63
LQKHPNIVRLHDSISEEGFHYLVF	1.76
LSKHPNIVRLHDSISEEGFHYLVF	1.56
LVKHPNIVRLHDSISEEGFHYLVF	2.86
LWKHPNIVRLHDSISEEGFHYLVF	3.25
LIKHPNIVRLHDSISEEGFHYLVF	3.93
QLKHPNIVRLHDSISEEGFHYLVF	1.77
FLKHPNIVRLHDSISEEGFHYLVF	2.89
PLKHPNIVRLHDSISEEGFHYLVF	1.76
CLKHPNIVRLHDSISEEGFHYLVF	1.97
VLKHPNIVRLHDSISEEGFHYLVF	2.25

Variant	protein stability index
YLKHPNIVRLHDSISEEGFHYLVF	1.96
HLKHPNIVRLHDSISEEGFHYLVF	1.51
ILKHPNIVRLHDSISEEGFHYLVF	3.14
KLKHPNIVRLHDSISEEGFHYLVF	3.1
DLKHPNIVRLHDSISEEGFHYLVF	4.59
TLKHPNIVRLHDSISEEGFHYLVF	1.62
ELKHPNIVRLHDSISEEGFHYLVF	2.23
NLKHPNIVRLHDSISEEGFHYLVF	2.14
SLKHPNIVRLHDSISEEGFHYLVF	2.13
MLKHPNIVRLHDSISEEGFHYLVF	2.61
LLKHPNSVRLHDSISEEGFHYLVF	1.89
LLKHPNNVRLHDSISEEGFHYLVF	3.17
LLKHPNKVRLHDSISEEGFHYLVF	1.56
LLKHPNMVRLHDSISEEGFHYLVF	3.55
LLKHPNRVRLHDSISEEGFHYLVF	2.02
LLKHPNTVRLHDSISEEGFHYLVF	2.19
LLKHPNHVRLHDSISEEGFHYLVF	3.65
LLKHPNAVRLHDSISEEGFHYLVF	1.95
LLKHPNFVRLHDSISEEGFHYLVF	2.39
LLKHPNLVRLHDSISEEGFHYLVF	2.98
LLKHPNDVRLHDSISEEGFHYLVF	1.99
LLKHPNQVRLHDSISEEGFHYLVF	2.14
LLKHPNWVRLHDSISEEGFHYLVF	1.07
LLKHPNEVRLHDSISEEGFHYLVF	2.67

Variant	protein stability index
LLKHPNPVRLHDSISEEGFHYLVF	1.76
LLKHPNCVRLHDSISEEGFHYLVF	3.93
LLPHPNIVRLHDSISEEGFHYLVF	2.1
LLCHPNIVRLHDSISEEGFHYLVF	3.78
LLMHPNIVRLHDSISEEGFHYLVF	1.77
LLWHPNIVRLHDSISEEGFHYLVF	2.83
LLAHPNIVRLHDSISEEGFHYLVF	2.38
LLVHPNIVRLHDSISEEGFHYLVF	1.78
LLLHPNIVRLHDSISEEGFHYLVF	3.21
LLTHPNIVRLHDSISEEGFHYLVF	1.52
LLDHPNIVRLHDSISEEGFHYLVF	2.74
LLFHPNIVRLHDSISEEGFHYLVF	2.85
LLYHPNIVRLHDSISEEGFHYLVF	3
LLIHPNIVRLHDSISEEGFHYLVF	2.71
LLRHPNIVRLHDSISEEGFHYLVF	2.28
LLHHPNIVRLHDSISEEGFHYLVF	1.44
LLSHPNIVRLHDSISEEGFHYLVF	1.79
LLGHPNIVRLHDSISEEGFHYLVF	2.04
LLEHPNIVRLHDSISEEGFHYLVF	2.16
LLNHPNIVRLHDSISEEGFHYLVF	2.22
LLKMPNIVRLHDSISEEGFHYLVF	3.37
LLKDPNIVRLHDSISEEGFHYLVF	1.77
LLKRPNIVRLHDSISEEGFHYLVF	2.6
LLKQPNIVRLHDSISEEGFHYLVF	1.06

Variant	protein stability index
LLKEPNIVRLHDSISEEGFHYLVF	2.6
LLKKPNIVRLHDSISEEGFHYLVF	3.21
LLKLPNIVRLHDSISEEGFHYLVF	2.79
LLKTPNIVRLHDSISEEGFHYLVF	1.84
LLKAPNIVRLHDSISEEGFHYLVF	3.37
LLKIPNIVRLHDSISEEGFHYLVF	2.28
LLKYPNIVRLHDSISEEGFHYLVF	2.32
LLKSPNIVRLHDSISEEGFHYLVF	1.94
LLKFPNIVRLHDSISEEGFHYLVF	1.88
LLKCPNIVRLHDSISEEGFHYLVF	1.66
LLKVPNIVRLHDSISEEGFHYLVF	1.58
LLKWPNIVRLHDSISEEGFHYLVF	1.44
LLKGPNIVRLHDSISEEGFHYLVF	2.23
LLKPPNIVRLHDSISEEGFHYLVF	1.67
LLKHPHIVRLHDSISEEGFHYLVF	2.18
LLKHPPIVRLHDSISEEGFHYLVF	2.15
LLKHPTIVRLHDSISEEGFHYLVF	3.24
LLKHPLIVRLHDSISEEGFHYLVF	3.32
LLKHPQIVRLHDSISEEGFHYLVF	3.46
LLKHPAIVRLHDSISEEGFHYLVF	2.22
LLKHPFIVRLHDSISEEGFHYLVF	2.94
LLKHPKIVRLHDSISEEGFHYLVF	2.36
LLKHPWIVRLHDSISEEGFHYLVF	2.75
LLKHPVIVRLHDSISEEGFHYLVF	3.01

Variant	protein stability index
LLKHPRIVRLHDSISEEGFHYLVF	2.54
LLKHPIIVRLHDSISEEGFHYLVF	1.94
LLKHPEIVRLHDSISEEGFHYLVF	3.7
LLKHPYIVRLHDSISEEGFHYLVF	3.11
LLKHPDIVRLHDSISEEGFHYLVF	1.76
LLKHPCIVRLHDSISEEGFHYLVF	2.13
LLKHPSIVRLHDSISEEGFHYLVF	1.39
LLKHHNIVRLHDSISEEGFHYLVF	2.4
LLKHDNIVRLHDSISEEGFHYLVF	1.97
LLKHTNIVRLHDSISEEGFHYLVF	2.59
LLKHYNIVRLHDSISEEGFHYLVF	1.57
LLKHANIVRLHDSISEEGFHYLVF	2.2
LLKHKNIVRLHDSISEEGFHYLVF	2.42
LLKHNNIVRLHDSISEEGFHYLVF	2.58
LLKHLNIVRLHDSISEEGFHYLVF	3.34
LLKHCNIVRLHDSISEEGFHYLVF	2.29
LLKHSNIVRLHDSISEEGFHYLVF	2.59
LLKHGNIVRLHDSISEEGFHYLVF	1.76
LLKHINIVRLHDSISEEGFHYLVF	3.47
LLKHFNIVRLHDSISEEGFHYLVF	2.26
LLKHMNIVRLHDSISEEGFHYLVF	1.72
LLKHVNIVRLHDSISEEGFHYLVF	2.56
LLKHWNIVRLHDSISEEGFHYLVF	2.57
LLKHQNIVRLHDSISEEGFHYLVF	2.6

Variant	protein stability index
LLKHPNIVNLHDSISEEGFHYLVF	2.7
LLKHPNIVCLHDSISEEGFHYLVF	3.88
LLKHPNIVWLHDSISEEGFHYLVF	2.69
LLKHPNIVMLHDSISEEGFHYLVF	2.74
LLKHPNIVLLHDSISEEGFHYLVF	3.22
LLKHPNIVSLHDSISEEGFHYLVF	2.58
LLKHPNIVQLHDSISEEGFHYLVF	2.17
LLKHPNIVALHDSISEEGFHYLVF	2.1
LLKHPNIVDLHDSISEEGFHYLVF	3.18
LLKHPNIVTLHDSISEEGFHYLVF	1.68
LLKHPNIVPLHDSISEEGFHYLVF	2.45
LLKHPNIVKLHDSISEEGFHYLVF	3.39
LLKHPNIVELHDSISEEGFHYLVF	3.23
LLKHPNIVVLHDSISEEGFHYLVF	1.84
LLKHPNIVHLHDSISEEGFHYLVF	2.1
LLKHPNIVFLHDSISEEGFHYLVF	1.26
LLKHPNIVGLHDSISEEGFHYLVF	1.79
LLKHPNIVYLHDSISEEGFHYLVF	2.87

Variants of: B2
Experiment: as above
Settings: c terminus: a fixed tail appended

Variant	protein stability index
YAHQMVRTDSREQKLDAFLQPLTK	2.43
FAHQMVRTDSREQKLDAFLQPLSK	2.12
